Assay results: patent publication US20240140995A1

Columns and labels:
[1] = molecular target: T1, GthCol (Geobacillus thermoglucosidasius C-terminal Colicin DNase domain, C36A, H78A, engineered) (Geobacillus thermoglucosidasius); experiment: SPR Biacore T200, 37 C, single cycle kinetics; conditions: remark: other sources report otherwise
[2] = molecular target: T1, GthCol (Geobacillus thermoglucosidasius …); experiment: SPR Biacore T200, 37 C, single cycle kinetics; […]; conditions: remark: other sources report otherwise

B1: E. coli IM-7, singly biotinylated, Q03708 1-87 (protein)
chain: MELKNSISDYTEAEFVQLLKEIEKENVAATDDVLDVLLEHFVKITEHPDGTDLIYYPSDNRDDSPEGIVKEIKEWRAANGKPGFKQG
In the case of B1, the complex half-life t/2-diss [1] is reported as 2.1 h, the Kd [2] is reported as 0.074 nM and the MR (Molar Ratio, binding stoichiometry) [2] is reported as 1.1. For the same binder, the koff [2] was 9.2e-05 s⁻¹ and the kon [2] was 1.2e+06 M⁻¹ s⁻¹.
